Laboratory results taken from patent US20100095387A1 (published 2010).

Assays:
[1] = molecular target: T1, α3 subunit of the Na+/K+-ATPase, endogenous on mouse cells (cortical neurons, cortical slices, cardiac … (mouse, UniProt Q6PIC6 1-1013)); test: cell-based or functional assay
[2] = molecular target: T1, α3 subunit of the Na+/K+-ATPase, …; test: competition against C-Ag20z8 on live cortical neurons, NIH Image analysis of immunofluorescence; competitor C-Ag20z8

| Binder | EC50 of c-fos induction (Fos in situ enzyme-linked immunoassay, cortical cultures) [1] [pM] | glutamate-induced Fos expression of agrin-deficient neurons grown 2 d in 5 nM fragment [1] [fold] | reduction of labeling (mean pixel intensity) at a 1:1 molar ratio [2] [%] | IC50 of inhibition of c-fos induction by 50 pM C-Ag95z8 (cortical cultures, single-site competition model) [1] [pM] |
| --- | --- | --- | --- | --- |
| C-Ag20z0, 20-kD COOH-terminal fragment of mouse agrin, z0 splice variant (ligand, not shown: small tags and cut ends) MDPRTYIEYLNAVTESEKALQSNHFELTLRTEATQGWLVLWIGKAAERADYMALAIVDGHLQLSYDLASQPVVLRSTVKVNTNRWLRVRAHREHREGSLQVGNEAPVTSSSPLGATQLDTDGALWLGGLQKLPVGQPLPKAYGTGFVGCLRNVVGHRQLHLLEDAVTKPELRPCPTLNSKLGPEQKLISEEDLNSAVDHHHHHH | 13.3 | 2.2 |  |  |
| C-Ag15, 15-kD COOH-terminal fragment of mouse agrin (37 amino acids deleted from the NH2 terminus of C-Ag20) (ligand, not shown: small tags and cut ends) MDPWIGKAAERADYMALAIVDGHLQLSYDLASQPVVLRSTVKVNTNRWLRVRAHREHREGSLQVGNEAPVTSSSPLGATQLDTDGALWLGGLQKLPVGQPLPKAYGTGFVGCLRNVVGHRQLHLLEDAVTKPELRPCPTLNSKLGPEQKLISEEDLNSAVDHHHHHH |  |  |  | 64.5 |

Further lines, results first:

| EC50 of c-fos induction (Fos in situ enzyme-linked immunoassay, cortical cultures) [1] [pM] | glutamate-induced Fos expression of agrin-deficient neurons grown 2 d in 5 nM fragment [1] [fold] | reduction of labeling (mean pixel intensity) at a 1:1 molar ratio [2] [%] | IC50 of inhibition of c-fos induction by 50 pM C-Ag95z8 (cortical cultures, single-site competition model) [1] [pM] | Binder |
| --- | --- | --- | --- | --- |
| 11.2 | 2.2 |  |  | C-Ag20z8, 20-kD COOH-terminal fragment of mouse agrin, z8 splice variant (ligand, not shown: small tags and cut ends) MDPRTYIEYLNAVTESELTNEIPAEKALQSNHFELTLRTEATQGWLVLWIGKAAERADYMALAIVDGHLQLSYDLASQPVVLRSTVKVNTNRWLRVRAHREHREGSLQVGNEAPVTSSSPLGATQLDTDGALWLGGLQKLPVGQPLPKAYGTGFVGCLRNVVGHRQLHLLEDAVTKPELRPCPTLNSKLGPEQKLISEEDLNSAVDHHHHHH |
|  |  | ~30 |  | rC-Agy4z8, soluble 95-kD COOH-terminal fragment of rat agrin, y4 z8 (ligand, UniProt P25304-5 1153-1951, looked up, domain: soluble 95-kD COOH-terminal fragment; Harvested in medium conditioned by transiently transfected COS-7 cells; concentration only estimated; also called Rat C-Ag4,8; rC-Ag95y4z8) AATGTTAAMATARATTVSRLPASSVTPRVYPSHTSRPVGRTTAPPTTRRPPTTATNMDRPRTPGHQQPSKSCDSQPCLHGGTCQDQDSGKGFTCSCTAGRGGSVCEKVQPPSMPAFKGHSFLAFPTLRAYHTLRLALEFRALETEGLLLYNGNARGKDFLALALLDGRVQFRFDTGSGPAVLTSLVPVEPGRWHRLELSRHWRQGTLSVDGETPVVGESPSGTDGLNLDTNLYVGGIPEEQVAMVLDRTSVGVGLKGCIRMLDINNQQLELSDWQRAAVQSSGVGECGDHPCLPNPCHGGALCQALEAGMFLCQCPPGRFGPTCADEKSPCQPNPCHGAAPCRVLSSGGAKCECPLGRSGTFCQTVLETAGSRPFLADFNGFSYLELKGLHTFERDLGEKMALEMVFLARGPSGLLLYNGQKTDGKGDFVSLALHNRHLEFCYDLGKGAAVIRSKEPIALGTWVRVFLERNGRKGALQVGDGPRVLGESPKSRKVPHTMLNLKEPLYIGGAPDFSKLARGAAVSSGFSGVIQLVSLRGHQLLTQEHVLRAVDVSPFADHPCTQALGNPCLNGGSCVPREATYECLCPGGFSGLHCEKGLVEKSVGDLETLAFDGRTYIEYLNAVIESPETLDSRALFSEKALQSNHFELSLRTEATQGLVLWIGKAAERADYMALAIVDGHLQLSYDLGSQPVVLRSTVKVNTNRWLRIRAHREHREGSLQVGNEAPVTGSSPLGATQLDTDGALWLGGLQKLPVGQALPKAYGTGFVGCLRDVVVGHRQLHLLEDAVTKPELRPCPTP |
